Data published in paper PMC10042821, “Cryo-EM structure of human eIF5A-DHS complex reveals the molecular basis of hypusination-associated neurodegenerative disorders” (Nature Communications, 2023).

T1: deoxyhypusine synthase I271A, His-tagged (human, UniProt P49366 1-369, I271A, RED-tris-NTA 2nd Generation dye on the His tag)
T1 construct: human deoxyhypusine synthase, Uniprot P49366, residues 1-369, site-directed mutant of the pET24d full-length construct; also called DHS I271A; source: E. coli, purified; not shown: 6xHis, N-terminal, kept
T1 sequence (looked up): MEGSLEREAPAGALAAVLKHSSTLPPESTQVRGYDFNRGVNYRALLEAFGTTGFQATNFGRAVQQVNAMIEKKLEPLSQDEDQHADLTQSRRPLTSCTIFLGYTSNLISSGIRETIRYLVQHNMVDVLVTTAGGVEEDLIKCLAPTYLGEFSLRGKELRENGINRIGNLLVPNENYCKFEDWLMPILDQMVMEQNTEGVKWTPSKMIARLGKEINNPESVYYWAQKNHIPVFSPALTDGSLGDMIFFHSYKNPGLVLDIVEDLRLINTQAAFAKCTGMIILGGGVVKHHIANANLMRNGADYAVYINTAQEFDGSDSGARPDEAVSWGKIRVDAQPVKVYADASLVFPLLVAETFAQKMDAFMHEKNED

T2: deoxyhypusine synthase K329A, His-tagged (human, UniProt P49366 1-369, K329A)
T2 construct: deoxyhypusine synthase (DHS), Homo sapiens, UniProt P49366, residues 1-369; also called DHS^K329A; source: E. coli, purified; His-tagged protein labelled with RED-tris-NTA for MST; not shown: His6, N-terminal, kept
T2 sequence (looked up): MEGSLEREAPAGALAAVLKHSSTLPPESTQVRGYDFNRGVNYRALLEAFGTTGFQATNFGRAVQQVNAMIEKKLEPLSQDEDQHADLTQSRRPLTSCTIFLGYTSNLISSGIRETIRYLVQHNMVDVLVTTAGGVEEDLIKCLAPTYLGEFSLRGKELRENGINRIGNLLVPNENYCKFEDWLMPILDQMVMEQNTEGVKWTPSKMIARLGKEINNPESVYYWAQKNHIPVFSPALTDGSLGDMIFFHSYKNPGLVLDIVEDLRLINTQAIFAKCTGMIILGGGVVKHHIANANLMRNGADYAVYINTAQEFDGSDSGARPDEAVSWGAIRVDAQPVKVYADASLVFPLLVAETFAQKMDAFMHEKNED

T3: deoxyhypusine synthase H288A, His-tagged (human, UniProt P49366 1-369, H288A)
T3 construct: deoxyhypusine synthase (DHS), Homo sapiens, UniProt P49366, residues 1-369; source: E. coli, purified; His-tagged protein labelled with RED-tris-NTA for MST; not shown: His6, N-terminal, kept
T3 sequence (looked up): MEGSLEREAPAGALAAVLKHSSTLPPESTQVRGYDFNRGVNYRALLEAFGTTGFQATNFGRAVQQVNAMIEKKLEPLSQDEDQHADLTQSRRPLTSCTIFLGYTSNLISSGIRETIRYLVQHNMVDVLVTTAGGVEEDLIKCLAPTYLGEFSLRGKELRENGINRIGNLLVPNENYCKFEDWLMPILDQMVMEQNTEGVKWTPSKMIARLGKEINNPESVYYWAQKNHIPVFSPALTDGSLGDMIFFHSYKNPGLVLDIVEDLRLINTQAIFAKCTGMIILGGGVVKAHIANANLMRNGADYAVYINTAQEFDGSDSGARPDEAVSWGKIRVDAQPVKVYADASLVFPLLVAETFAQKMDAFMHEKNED

T4: deoxyhypusine synthase D243A, His-tagged (human, UniProt P49366 1-369, D243A)
T4 construct: deoxyhypusine synthase (DHS), Homo sapiens, UniProt P49366, residues 1-369; source: E. coli, purified; His-tagged protein labelled with RED-tris-NTA for MST; not shown: His6, N-terminal, kept
T4 sequence (looked up): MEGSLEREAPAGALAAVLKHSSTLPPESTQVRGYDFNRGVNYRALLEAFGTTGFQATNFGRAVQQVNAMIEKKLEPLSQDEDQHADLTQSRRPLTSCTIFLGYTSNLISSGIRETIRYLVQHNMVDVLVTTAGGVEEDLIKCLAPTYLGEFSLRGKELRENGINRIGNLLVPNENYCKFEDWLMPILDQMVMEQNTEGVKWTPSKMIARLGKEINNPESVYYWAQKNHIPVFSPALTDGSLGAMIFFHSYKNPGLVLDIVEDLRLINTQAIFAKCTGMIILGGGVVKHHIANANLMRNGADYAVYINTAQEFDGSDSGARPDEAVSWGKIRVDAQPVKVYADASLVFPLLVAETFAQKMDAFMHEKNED

T5: deoxyhypusine synthase E137A, His-tagged (human, UniProt P49366 1-369, E137A)
T5 construct: deoxyhypusine synthase (DHS), Homo sapiens, UniProt P49366, residues 1-369; source: E. coli, purified; His-tagged protein labelled with RED-tris-NTA for MST; not shown: His6, N-terminal, kept
T5 sequence (looked up): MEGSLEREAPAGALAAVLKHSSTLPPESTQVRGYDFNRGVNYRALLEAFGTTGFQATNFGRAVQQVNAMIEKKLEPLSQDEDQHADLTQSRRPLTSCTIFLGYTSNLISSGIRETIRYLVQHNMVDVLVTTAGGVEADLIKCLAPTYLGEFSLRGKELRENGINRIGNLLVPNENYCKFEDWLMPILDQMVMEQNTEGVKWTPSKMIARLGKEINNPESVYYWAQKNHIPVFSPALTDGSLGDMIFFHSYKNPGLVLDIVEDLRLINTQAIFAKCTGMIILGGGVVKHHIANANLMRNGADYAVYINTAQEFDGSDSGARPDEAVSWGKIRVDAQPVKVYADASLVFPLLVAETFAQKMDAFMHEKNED

B1: eukaryotic translation factor 5A (eIF5A-1), residues 15-151 (domain or fragment)
chain: not shown
notes: human eIF5A1, residues 15-151, from pET28-MHL (Addgene); The purification protocol removes the tag with TEV; source: E. coli, purified (HisTrap, TEV cleavage, reverse HisTrap, SEC); not shown: His tag, N-terminal, cleaved
B2: eukaryotic translation factor 5A-1 (eIF5A-1), residues 15-151 (domain or fragment)
chain: not shown
notes: eIF5A1 (eukaryotic translation factor 5A-1), human, residues 15-151, from pET28-MHL (Addgene); The general purification removes the His tag with TEV; A His-tagged eIF5A1 was used only in the hypusination assay; source: E. coli, purified (HisTrap, TEV cleavage, reverse HisTrap, SEC); not shown: His tag, N-terminal, cleaved

Experiments:
Details in all cases: both partners purified
[1] = target: T1, deoxyhypusine synthase I271A, His-tagged; assay: MST; His-tagged DHS variants labelled with RED-tris-NTA 2nd Generation, 8.32 nM; eIF5A titrated, sixteen dilutions 0.00175–57.5 μM; 50 mM Tris, 200 mM NaCl, 5 mM β-ME pH 8; Monolith NT.115, 40% excitation power, 60% MST power; no NAD or SPD
[2] = target: T2, deoxyhypusine synthase K329A, His-tagged; assay: MST; Monolith NT.115; 8.32 nM His-tagged DHS labelled with RED-tris-NTA, eIF5A titrated 0.00175-57.5 uM; 50 mM Tris, 200 mM NaCl, 5 mM beta-ME pH 8; free buffer
[3] = target: T3, deoxyhypusine synthase H288A, His-tagged; assay: as above
[4] = target: T4, deoxyhypusine synthase D243A, His-tagged; assay: as above
[5] = target: T5, deoxyhypusine synthase E137A, His-tagged; assay: as above

Kd [1]	Kd [2]	Kd [3]	Kd [4]	Kd [5]	Binder
56 ± 16 nM	–	–	–	–	B1
–	129 ± 37.9 nM	49.7 ± 28.7 nM	511 ± 182 nM	> 1000 nM	B2
